Molecular target: the molecule itself
Assay: crystal structure

B1: Homo sapiens REXO2 (enzyme)
chain: MAAGESMAQRMVWVDLEMTGLDIEKDQIIEMACLITDSDLNILAEGPNLIIKQPDELLDSMSDWCKEHHGKSGLTKAVKESTITLQQAEYEFLSFVRQQTPPGLCPLAGNSVHEDKKFLDKYMPQFMKHLHYRIIDVSTVKELCRRWYPEEYEFAPKKAASHRALDDISESIKELQFYRNNIFKKKIDEKKRKIIENGENEKTVS
binding result: binds
